Measurements taken from patent US10703792B2, “Insulin analogues with selective signaling properties and reduced mitogenicity” (Case Western Reserve University, priority 2015, dated 2020).

Experiments:
[1] = target: IR (Homo sapiens, UniProt P06213); conditions: known in the art; cited from earlier work
[2] = test system: Sprague-Dawley rats; conditions: one year of treatment; cited from earlier work
[3] = test system: human breast-cancer cell line MCF-7; assay: MCF-7 colony formation in soft agar (mitogenicity); assay type: cell-based; conditions: 100 nM protein, 3 weeks, relative to basal; preliminary assays
Protocol: Assay for MCF-7 Colony Formation in Soft Agar.
In our preliminary assays MCF-7 cells (1.5×10^3 cells in 0.75 ml, obtained from ATCC cat #HTB-22), were mixed with an equal volume Bacto-agar at 42° C. This 0.3% agar suspension was poured over a 1.5-ml base of 0.6% agar in 12-well plates and overlaid with basal growth medium with (or without) insulin or insulin analogues at a protein concentration of 100 nM, which was replenished 3× per week. Plates were incubated at 37° C. in a CO2 tissue-culture incubator for 3 weeks, at which time colonies were stained with crystal violet and counted under an inverted microscope. A positive control was provided by IGF-I (not shown) and a negative control by medium lacking insulin or an insulin analogue (“basal” in FIG. 6).

[4] = test system: male Lewis rats rendered diabetic by streptozotocin; conditions: statement on a current insulin product, not tested here; cited from earlier work

Question: Which “Enhancement of affinity for the IR relative to insulin” value [1] does the source give for “Asp^B10-insulin: insulin analogue with His^B10 substituted by Asp, known in the art” here?
Answer: twofold

Question: And the “Mammary tumors on chronic treatment” value [2]?
Answer: excess mammary tumors

Question: For “human proinsulin: wild-type human proinsulin (SEQ ID NO: 1)”, which “Mitogenicity: MCF-7 colony formation in soft agar” value [3] is on record?
Answer: negligible activities

Question: Which “Nanomoles needed for equivalent therapeutic effects” value [4] does the source give for insulin detemir here?
Answer: threefold
